These results are taken from a protein production outcome set (Wang et al. 2014).

The data set is described as follows: label from the status in PepcDB records.

For the sequence “MDTPILIPTDMNRIPFFYLLQISDPLFPIGGFTQSYGLETYVQKGIVHDAETSKKYLESYLLNSFLYNDLLAVRLSWEYTQKGNLNKVLELSEVFSASKAPRELRAANEKLGRRFIKILEFVLGENEMFCEMYEKVGRGSVEVSYPVMYGFCTNLLNIGKKEALSAVTYSAASSIINNCAKLVPISQNEGQKILFNAHGIFRRLLERVEELDEEYLGSCCFGFDLRAMQHERLYTRLYIS”, the protein production result is listed as “failed”.
Turning to “MDTPLGSVLYITLGCAKNEVDTDRMRSLLTAAGYEEAFDPQDADIAIVNTCSFLASATSESIETTLELANEVQDGVRSCPIVMCGCVPSRYGDDLPDELPEVAAFVKADEEDGIVAVIDGVLGVEREIAAYIPQVKRTVEGAVAYVKISDGCNRFCSFCMIPYIRGRYHSRNSESIISEVRDLVAGGVREIVLIGQDTGIWGTDFADEDVADGSPRNLAQLLRAVAEAVRPHNVWVRVLYLQPEGMTDELIDTIRDTPEVLPYIDIPVQHCDARILKAMRRSGSRQELEDLFRDLRERIPGIVIRSTAMVGFPTETDDEFRDLIDFMDTVGFDYTSVFAYSREEGSLAAKMEGQVDEEVKLERAQEAMDLAESLGFAATAAHVGERAQVIVDGIEETEDGAELIGHAWFQAPDSDGAVHLDASEASVGDILTVEFTDSFCYELIGHVVE”, the protein production result is given as “failed”.
Under “MDTSDLFASCRKGDVGRVRYLLEQRDVEVNVRDKWDSTPLYYACLCGHEELVLYLLANGARCEANTFDGERCLYGALSDPIRRALRDYKQVTASCRRRDYYDDFLQRLLEQGIHSDVVFVVHGKPFRVHRCVLGARSAYFANMLDTKWKGKSVVVLRHPLINPVAFGALLQYLYTGRLDIGVEHVSDCERLAKQCQLWDLLSDLEAKCEKVSEFVASKPGTCVKVLTIEPPPADPRLREDMALLADCALPPELRGDLWELPFPCPDGFNSCPDICFRVAGCSFLCHKAFFCGRSDYFRALLDDHFRESEEPATSGGPPAVTLHGISPDVFTHVLYYMYSDHTELSPEAAYDVLSVADMYLLPGLKRLCGRSLAQMLDEDTVVGVWRVAKLFRLARLEDQCTEYMAKVIEKLVEREDFVEAVKEEAAAVAARQETDSIPLVDDIRFHVASTVQTYSAIEEAQQRLRALEDLLVSIGLDC” stands “failed”; under “MDVAGDEAGGTAGARDRVADRAAGRAVALGAIALLVAGALEAWAVLGGLEPARFWDTPSYLHDAGHLARGELPPLGLRMPGYPAFVALVGGRGPDLGRVAGAQAALWVASVVLAYALVRRLTGSLAAALAAGLAALSFVDLLFMAVTIYSETLCLALVCGAALATVAAFGGRTRAAVAGAGLLWAAAALVRPIFLASAGVYLLAALLLAARRALARRDVALAWAAVAAVVLAMASLNLARAGRFEFSPGAGLSLLNHVGHPAVYRHLPPDQAPIREVYERLAAEQGREWIGWWRAVGPLAQVVAPELAEAAGRLEVTAAEPVAERVALRALAAVPGGWLRVWADAAEQLLGRFALQLGWSARPDGPPQWPPGAWQHRAARDAEAAWRVGMPWLSAAALLLPPLALWLRARRRRRGDDVPGPAGAGAALATLWAIAGVNAGLSPALEPWAGQMRYRFPIQHLLLGLAIGAAVLAARALRPARGLAGAGSPAPGAGAARRT”, “failed”.
With “MDVFATGAGQVDPAKVLSPGLVYDATTEDYLKFIQGTGMDLGMEGLGTTQARDMNVPSFALGNLAGKIEVTRTLTALTPGTYRASVNVPGVNVKVTPSVLTFGAPGEKKTFKVQFENNNAALGKFAMGSLNWQGANKTVTSPIAVRPLEHHHHHH”, the protein production entry is on record as “failed”.
Turning to “MDVGMPFSGPVSFPLLVIEEELPFRIHNICSETGKFDVVLDSITNMPKYGLKIFAGVRIDMYSILGDESSGRIYTLRKGTLADFNARILAYYDKAQVINADGDTCIKMANEGYSALVGNEISIGKSFRNRMKELGLDLPSCAMASTRRIDEVIEAYEQGIDFIKNNHERAAEIISKKSGYYSEEVMKKIIGIYGHEVTKKRAELVGSRELYSRVVPELNDIEIIG”, the protein production result is recorded as “not failed”.
On to “MDVLSPGQGNNTTSPPAPFETGGNTTGISDVTVSYQVITSLLLGTLIFCAVLGNACVVAAIALERSLQNVANYLIGSLAVTDLMVSVLVLPMAALYQVLNKWTLGQVTCDLFIALDVLCCTSSILHLCAIALDRYWAITDPIDYVNKRTPRRAAALISLTWLIGFLISIPPMLGWRTPEDRSDPDACTISKDHGYTIYSTFGAFYIPLLLMLVLYGRIFRAARFRIRKTVKKVEKTGADTRHGASPAPQPKKSVNGESGSRNWRLGVESKAGGALCANGAVRQGDDGAALEVIEVHRVGNSKEHLPLPSEAGPTPCAPASFERKNERNAEAKRKMALARERKTVKTLGIIMGTFILCWLPFFIVALVLPFCESSCHMPTLLGAIINWLGYSNSLLNPVIYAYFNKDFQNAFKKIIKCKFCRQ”, for which the protein production result was “failed”.
Turning to “MDVPSPCNVLMLYPLFTAESFWSFGESCKLMGVKRPAAPLGLITVAAMLPADWTVRLIDCNTSPLGDEDLAWADVVFTGGMLPQQADTLRLIELCRAAGKPVVVGGPDPTSSPHIYERADFRVLGEAESVIDEFIAAWEGGARSGVFTAPKFQADVTRTPVPRFDLLKFEDYLYIGVQYSRGCPFTCEFCDIIELYGRVPRTKTAEQMFVELETLYRMGYRGHLDFVDDNFIGNKKSLRLFLPQLAEWQRAHGYPFEFSTEASINLADDPELLEQMGAANFFGIFVGIESPDPATLVAMRKKQNTRRNIAESIHKIYAAGILVTAGFIVGFDNEKVSMAEAMIEFIEEAAIPVSMVGLLYALPNTQLTRRLEREGRLHPGHDLAPTIGADQCTDGINFDPVRPLRDILMDYKRVLERIYSPAAYAGRIDRLMTLLDRSRQRHALAEGDIRAKLGAMETVHRVVTAIPEARGPLWQTFMNCAKRDTSSARIAVQMIAAYAHLGPFSRKVIDAIDARLAALDDETVIPAATIDATAARHLA”, the protein production entry is given as “failed”.
With “MDYATNCASLPKWHKVPLLSVCIPAYNRPQGLVAAVRSVVAALPREYHDQVEIVITDDSATRTAVDDLLAPWSGHWHYQHNAQRLGMVANWNTSLAKACGEFILLLHDDDYLLPQGITTILATLSQYGSQFDVFLFGVHLVDSHQRCLRRQIPRRQEWLSPAQALRQLLRHSSLVRFPALIWRRSLLDAVGYFDPTYGEATDLYQWLRFFAQKGVYTVPCATAAYRIHDQALTMGMFQAQTLATLGRIFAAAADLSLLSPAELRHCQCDFFHQFILAGTWRFLRRRQWQRAQAVYQLFDLPEVIALGRSRRWQGLRWLLGSWLWLLQQLSS”, the protein production result is “failed”.
For “MDYLNYEEIQSLKNSLLHNIKHTYISRYMILTALYTGMRPGEIAVLTWSDIDFKNQTININKSYNHDKGRVDNYDSSEIDKSTKNTNSVRIIKVDKKFLDILSQLKQNDHEKIFIGKDGTIPTSNAVNKVWRKQLEKLNIDKPSFHFHSVRHTHVALLPFKGVPLYAISKRLGHANMSTTAKKYAYMLDELKQQVRLEHHHHHH”, the protein production result is “not failed”.
For the sequence “MDYLPVEVIGNILSRLGGARDVVIASATCRKWREACRKHLQTLSFNSADWPFYRDLTTNRLEILITQTIFQTMGLQGLSIMMDDANKFSAATVIAWLMYTRDTLRRLSYNVRTTPNVNILEICGRQKLEALVLAHNSITGVEPSFQRFPCLKSLSLSYVSISALDLNLLLSACPMIESLELVSLEIAMSDAQVTIELSSPTLKSVYFDGISLDKFILEADSIEFLHMKDCVLELFELIGNGTLKHFKLDDVSVIHLDIMETSESLEVVDVNHFTMVWPKFYQMISRSQKLKKLRLWDVVFDDDDEIIDVESIAAGFSHLTHLSLSYDLKDGAAHYSLQGTTQLENVTVLELGWTVINDVFSIWVEELLRRCPNLKKLIIYGVVSETKTQGDCQILATFTWSIVQLMRKYIHVEVQFEYE”, the protein production result is recorded as “failed”.
As for “MDYRQLHRWDLPPEEAIKVQNELRKKIKLTPYEGEPEYVAGVDLSFPGKEEGLAVIVVLEYPSFKILEVVSERGEITFPYIPGLLAFREGPLFLKAWEKLRTKPDVVVFDGQGLAHPRKLGIASHMGLFIEIPTIGVAKSRLYGTFKMPEDKRCSWSYLYDGEEIIGCVIRTKEGSAPIFVSPGHLMDVESSKRLIKAFTLPGRRIPEPTRLAHIYTQRLKKGLFLEHHHHHH”, the protein production result is given as “not failed”.
Under “MEAATWILFTLGVSLILAKIGDSLVERFELPGVLGELLVGIILGNLVYFGVISSEYLPITAGSSEVIDFMAKLGVVFLLFLGALDTDLNLIKRTGITAVVSTILGVFVPLILGYLGLRWLGYDNKEAFAGGVLLTATSIGLTVRVMMDLGVLRSEVGAASLSASVIDDFLGIALIIFAVGSGSLLGLGIKIIIFFLITGVVGWYFIDHYLKFAERLGVEKGVLGFVLGMMLIFSALAEGWFAAAIEGAFMMGLILSKTAEGKRLLEEVRSIGYGFLIPIFFVHTGAMLNFKVFENLEAIKLAVVLSVIAIVGKVAGRGFGAWITAWGRGKDFLFTRENFRMSFQMGIGSIPRTEVALVALMVAIHGGAISPDDAPKFIAATLIFITISVLITPPLLKWAFREEILAQKKLLLENRKEKIESKKRGTR” stands “failed”; under “MEAFFRHAERVAHPSPRLRLLLALGHRMRGELDRGLAVLEGFPEEDPALLAEALLAQGTLLGLKGAHGEAEDVFSQGVALGETPLRARFLTSRGAARIRLGRYREAAEDLEEALFLSRKERLKEVEALALHNLAIARHHLGELAEAVRLYREVLPLKTAPLSRAYTLLSLGEALSYLGRFLEAKRTLFRAREEAWASGDYRAMGYTLLNLADLYREAGLPEAEGLYREAEAHLEKAHDPYALGLVHLGLARLGAKGSLERARALFQEGGSPGELAEWHLVAGRLCGRPEHFEEALRLAEKAGAGRLLLLARLELFLKAPSPGEAKALAREVLKAGFQDFWLWERAFPLPLLAFEAGEEGLLEALLAGVGWLRARSLKALEARTEEGPLPLPSRKELLLLLLLWRRKALEAEALARLLFPGSKNPKKRLQVAVHHLREALDPDLVRLEGEAYRAYLPPGVWWDARVKEGLLRWARRLSLPQAQARVEEALPGRFSPQAYLTDP”, “failed”; under “MEALVRCLRSGQFLLIIDNLESVLQPDRQWGSLFYGDFFQAWIESGGNSKVLVTTRERPELKGFEWLTLKGLQVDEGVALLTALGIKGNLGEFVELVDGHPLLLRLVADLLKEEYPQDPDLSRLADLGLGNLQQLLTDSQVVGVHRRENVGMVLVLDASFHRLSELQKALLLNISVYRGAVDSAAAVAMLPGNSAAEIEKELRNIVKRSLLVEKLNGKRRFEFQPVVLEYVRYKAGDQSEAHQRAIDYYRSVAKQPPWTTKDDVREYLEIFDHFYQLQDYDSAFDNIRVCSKFLGLCGFFVDKVELYGQLISKWKEIGERENWNYGASLTALGNAYRYLGEYQRAIELFQQSLEIFRDIGDRNGVSNSLIGLGNTYNSVGEYQRAIELFQQSLEISRDIGDRNGVGGSLMGLGNAYNSVGEYQRAIELFQQSLEISRDIGDRNGVGNSLIGLGNAYHSLGEYQRAIEFRQQSLEIFRDMGDRNGVSISLNNLGNTYYFLGEYQRAIEFHQQSLEISRDIGDCNGVGRSLNNLGNAYYSLGKYQQAIEFHQQSLEIKRDIGDRNGVGTSLNNLGTAYSSLGKYQRAIELFQQSLEIKRDIGDRNGVGTSLMNLSNAYYRCGKIREAFAVWHQAESIFQELQLPFEAMPYPQWLKSLIKFAQRGWFQFILCFIFGLIAFPFALVWLILLFLWPSISSQFRR”, “failed”.
Regarding “MEAPKMALSDVKCRNARPASKLVKLSDGGGLQLWVQPTGSRLWRLAYRFGGKQKLLALGSYPLISLAEAREARDTAKRLLLRGIDPAQERKSQKASAEDTFRSIAEDYVDKLKKEGRADRTITKVKWLLDFAYPTFGDKSVREIDPATILAALRSVEVRGRYESARRMRSTIGSVFRYAIATARADVDPTIALRGALVGPTVTPRAAVTDPKALGGLLRAINAFDGQPTTRAALKLMALLFPRPGELRAAGWDEFDFESSVWSIPEGRMKMRRPHRVPLSTQAVSVLTSLREISGGGSLLFPSVRSGSRPISDNTLNAALRRMGYGKEEATAHGFRATASTLLNECGKWHPDAVERQLAHIENNDVRRAYARAEHWEERVRMMQWWADYLDELESKNSRVVSIGGREASLLSIHPREGLVWKPTATVRQTTSRTSNLRKSH”, the protein production result is given as “failed”.
